Substrate: O=c1ccn([C@@H]2O[C@H](COP(=O)(O)OP(=O)(O)O[C@H]3OC[C@@H](O)[C@H](O)[C@H]3O)[C@@H](O)[C@H]2O)c(=O)[nH]1
Test: cells, lysate or membranes
Conditions: Pichia-expressed; conditions not stated

B1: Pichia-expressed form of XT-I (Homo sapiens) (protein)
chain: PKCDISGKEAISALSRAKSKHCRQEIGETYCRHKLGLLMPEKVTRFCPLEGKANKNVQWDEDSVEYMPANPVRIAFVLVVHGRASRQLQRMFKAIYHKDHFYYIHVDKRSNYLHRQVLQVSRQYSNVRVTPWRMATIWGGASLLSTYLQSMRDLLEMTDWPWDFFINLSAADYPIRTNDQLVAFLSRYRDMNFLKSHGRDNARFIRKQGLDRLFLECDAHMWRLGDRRIPEGIAVDGGSDWFLLNRRFVEYVTFSTDDLVTKMKQFYSYTLLPAESFFHTVLENSPHCDTMVDNNLRITNWNRKLGCKCQYKHIVDWCGCSPNDFKPQDFHRFQQTARPTFFARKFEAVVNQEIIGQLDYYLYGNYPAGTPGLRSYWENVYDEPDGIHSLSDVTLTLYHSFARLGLRRAETSLHTDGENSCRYYPMGHPASVHLYFLADRFQGFLIKHHATNLAVSKLETLETWVMPKKVFKIASPPSDFGRLQFSEVGTDWDAKERLFRNFGGLLGPMDEPVGMQKWGKGPNVTVTVIWVDPVNVIAATYDILIESTAEFTHYKPPLNLPLRPGVWTVKILHHWVPVAETKFLVAPLTFSNRQPIKPEEALKLHNGPLRNAYMEQSFQSLNPVLSLPINPAQVEQARRNAASTGTALEGWLDSLVGGMWTAMDICATGPTACPVMQTCSQTAWSSFSPDPKSELGAVKPDGRLR
  Km: 300 µM
